Results reported in patent US20260273112A1 (WASHINGTON UNIVERSITY, published 2026).

Target: T1, Recombinant human CD38 protein (R&D, Catalog 2404-AC-010) (human, UniProt P28907 43-300)
T1 construct: In the MST assay the protein was labeled with NT647 (red-maleimide kit) and used at 5 nM; also called purified CD38 protein; purified human CD38 protein
Assay: MST, NT647-labeled recombinant human CD38 at 5 nM, peptide titrated, 37 C
Experimental: Microscale thermophoresis (MST) assays determined the binding affinity of synthesized peptides to purified CD38 protein and was performed using the Monolith NT.115 (Nanotemper Technologies, Munich, Germany). […] Recombinant human CD38 protein (R&D, Catalog 2404-AC-010, Minneapolis, MN) was labeled with NT647 (Protein labeling kit red-maleimide, Nanotemper Technologies, Germany) and subsequently diluted to 5 nM in MST-2 buffer (50 mM Tris-HCl, pH 7.4, 150 mM NaCl, 10 mM MgCl₂, 2% DMSO, and 0.1% Tween-20). Fluorescence was assessed in MST-2 buffer. Samples were loaded into NT.115 standard capillaries, and analysis was performed at 37° C., 10% LED power, and 40% MST power. The Kd values were calculated from fragment concentration-dependent changes in normalized fluorescence (Fraction Bound) of different CD38 peptides based on the law of mass action using the MO Affinity Analysis v2.3 software.

| Kd | Binder |
| --- | --- |
| 82.6 nM | H-KGGSFSRDWTS-NH2 (Synthetic peptide, high score cluster B) [GGS-SL028 (H-Lys-Gly-Gly-Ser-Phe-Ser-Arg-Asp-Trp-Thr-Ser-NH2)] |
| 243 nM | FSRDWTSGGSK (N-terminal acetyl (AC); C-terminal amide (NH2)) [AC-SL028-GGS (AC-Phe-Ser-Arg-Asp-Trp-Thr-Ser-Gly-Gly-Ser-Lys-NH2)] |
